Patent US20250144228A1 (CHILDREN S MEDICAL CENTER, published 2025)

B1: anti-MICA VHH nanobody clone H3 (VHH)
VHH: QVQLVETGGGLVQAGGSLRLSCAASGRTFSSYAMGWFRQAPGKEREFVAGISWSGGSTYYGDSVKGRFTISRDNAKNTVYLLMNSLKPEDTAVYYCAADLVRSYGSSWPSLFQFRNPEDVQDGMDYWGKGTLVTVSS
B2: anti-p83 B4 VHH (P. falciparum MSP-1 specific) (VHH)
VHH: QLQLVESGGGLAQAGGSLRLSCAASGRTSSTKPMGWFRQAPGLEREFVASISWLGGSTLYSDSVKGRFTISRDNAKNTVYLQMNSLKSEDTAVYYCAGGTSAYSGRDSSRYEYWGQGTQVTVSS
notes: also called anti-p84 B4
B3: anti-MICA VHH nanobody clone A1 (VHH)
VHH: QVQLVESGGGLVQPGGSLRLSCAASGFTLDYYDIGWFRQAPGKEREGVSCITSSDGSTYYADSVKGRFTISRDNAKNTVYLQMNSLKPEDTAVYYCAADCTKPQWKSKTEAWGQGTQVTVSS
B4: anti-p42 A6 VHH (P. falciparum MSP-1 specific) (VHH)
VHH: QVQLVESGGGLVQAGGSLRLSCAASARTFSYYGAAWFRQAPGKEREFVAAVSWNGDDTYYADSVKGRFTISRDNTKNTVSLQMNALKPEDTAVYYCEAAAYGRDWRQSANYVYWGQGTQVTVSS
B5: anti-p42 G11 VHH (P. falciparum MSP-1 specific) (VHH)
VHH: QVQLVETGGGLVQAGGSLRLSCVVSGRSLILYGMGWFRQAPGKEREFVAGIVWNGGWTYYADSVKGRFTISRDTAKNTVYLQMNSLKPEDTAVYSCAAGPGDGRRRVAPAEYNYWGQGTQVTVSS

Legend:
[1] = target: T1, MICB expressed on transfected B16F10 melanoma cells (human, UniProt Q29980 23-383); assay: flow cytometry of transfected B16F10 cells, biotinylated nanobody with streptavidin-PE
T1 construct: whole, on cells; also called MICB-transfected cells
T1 sequence (looked up): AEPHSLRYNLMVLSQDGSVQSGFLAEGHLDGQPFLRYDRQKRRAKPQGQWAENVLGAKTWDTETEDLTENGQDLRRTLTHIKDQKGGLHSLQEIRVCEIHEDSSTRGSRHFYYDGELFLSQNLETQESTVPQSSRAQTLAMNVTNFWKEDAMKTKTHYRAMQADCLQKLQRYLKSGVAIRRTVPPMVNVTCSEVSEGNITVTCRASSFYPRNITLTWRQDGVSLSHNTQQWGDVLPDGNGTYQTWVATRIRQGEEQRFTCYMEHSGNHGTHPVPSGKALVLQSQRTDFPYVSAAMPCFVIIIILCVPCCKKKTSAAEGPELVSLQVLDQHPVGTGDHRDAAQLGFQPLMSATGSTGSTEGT

[2] = target: T2, P. falciparum MSP-1 subunit p42 (plate-bound, isolated) (Plasmodium falciparum, UniProt Q8I0U8 1327-1699); assay: Western blot against PfMSP-1 subunits
T2 construct: domain: p42
T2 sequence: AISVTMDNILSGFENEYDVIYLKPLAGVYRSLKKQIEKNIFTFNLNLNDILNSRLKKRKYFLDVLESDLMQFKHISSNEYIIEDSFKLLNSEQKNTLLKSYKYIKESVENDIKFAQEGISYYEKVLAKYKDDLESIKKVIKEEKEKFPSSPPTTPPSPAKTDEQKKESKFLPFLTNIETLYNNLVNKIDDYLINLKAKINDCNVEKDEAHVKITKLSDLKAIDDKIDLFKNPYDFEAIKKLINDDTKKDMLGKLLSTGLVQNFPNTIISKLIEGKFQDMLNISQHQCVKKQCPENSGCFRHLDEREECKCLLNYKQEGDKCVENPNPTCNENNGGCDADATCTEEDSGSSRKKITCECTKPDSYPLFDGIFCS

[3] = target: T3, P. falciparum MSP-1 subunit p38 (plate-bound, isolated) (Plasmodium falciparum, UniProt Q8I0U8 911-1326); assay: Western blot against PfMSP-1 subunits
T3 construct: domain: p38
T3 sequence: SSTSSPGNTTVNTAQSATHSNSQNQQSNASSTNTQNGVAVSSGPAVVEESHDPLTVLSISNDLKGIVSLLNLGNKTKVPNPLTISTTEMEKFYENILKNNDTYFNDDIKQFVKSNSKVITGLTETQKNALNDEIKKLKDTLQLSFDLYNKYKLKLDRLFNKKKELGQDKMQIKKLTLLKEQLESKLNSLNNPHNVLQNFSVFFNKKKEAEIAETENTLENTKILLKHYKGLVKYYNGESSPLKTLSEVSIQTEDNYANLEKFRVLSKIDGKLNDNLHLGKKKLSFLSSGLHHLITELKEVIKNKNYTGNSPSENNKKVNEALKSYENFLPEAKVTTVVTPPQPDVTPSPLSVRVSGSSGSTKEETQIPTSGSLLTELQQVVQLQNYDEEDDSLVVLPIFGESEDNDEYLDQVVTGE

[4] = target: T4, P. falciparum MSP-1 subunit p83 (plate-bound, isolated) (Plasmodium falciparum, UniProt Q8I0U8 20-722); assay: Western blot against PfMSP-1 subunits
T4 construct: domain: p83
T4 sequence: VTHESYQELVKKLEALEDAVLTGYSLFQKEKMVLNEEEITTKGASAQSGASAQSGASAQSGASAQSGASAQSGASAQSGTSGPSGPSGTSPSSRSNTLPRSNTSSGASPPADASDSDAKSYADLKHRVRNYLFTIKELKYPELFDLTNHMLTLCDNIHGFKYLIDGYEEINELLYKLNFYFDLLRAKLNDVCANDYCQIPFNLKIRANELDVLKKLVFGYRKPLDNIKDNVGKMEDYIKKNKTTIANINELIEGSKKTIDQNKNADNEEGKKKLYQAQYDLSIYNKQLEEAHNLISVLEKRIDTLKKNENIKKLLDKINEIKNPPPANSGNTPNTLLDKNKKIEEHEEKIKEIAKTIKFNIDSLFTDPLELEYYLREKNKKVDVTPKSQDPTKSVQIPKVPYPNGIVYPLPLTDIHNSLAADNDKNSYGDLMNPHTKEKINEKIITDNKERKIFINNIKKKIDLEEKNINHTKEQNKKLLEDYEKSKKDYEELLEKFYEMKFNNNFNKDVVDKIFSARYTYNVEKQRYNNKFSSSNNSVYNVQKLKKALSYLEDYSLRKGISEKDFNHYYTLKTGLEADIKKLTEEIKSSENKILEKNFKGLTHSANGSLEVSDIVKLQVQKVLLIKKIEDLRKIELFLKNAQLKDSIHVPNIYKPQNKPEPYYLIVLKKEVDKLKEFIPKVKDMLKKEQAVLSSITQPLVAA

| Binder | binding result [1] | binding result [2] | binding result [3] | binding result [4] |
| --- | --- | --- | --- | --- |
| B1 | no binding |  |  |  |
| B2 |  | no binding | no binding |  |
| B3 | no binding |  |  |  |
| B4 |  |  | no binding | no binding |
| B5 |  |  | no binding | no binding |
